Test results reported in US10669350B2, “Antigen-binding constructs that bind to and inhibit catalase and/or superoxide dismutase as well as pharmaceutical compositions containing them for tumor therapy” (priority 2015, dated 2020).
Entries after “also recorded” stand apart in the source; their conditions may differ.

How the values were obtained:
[1] = test system: human neuroblastoma line SHEP; experiment: Standard preparation for apoptosis induction in SHEP cells (percentage of apoptotic cells); format: cell-based
Procedure: (§1) The experiments shown in FIG. 13-24 were carried out with a standard preparation for the apoptosis induction that is based on the method performed in Heinzelmann and Bauer 2010. The tumor cells used were taken from an optimally growing semi-sealed culture, centrifuged and placed in fresh medium. The test was performed in 96-well cell culture plates with 12 500 MKN-45 cells/100 μl medium or 10 000 SHEP cells/100 μl medium. MKN-45 cells grow in suspension, SHEP cells are adherent. The tests with SHEP cells were started as soon as the cells had grown on. By adding increasing concentrations of single domain VHH fragments that either inhibit catalase or SOD the protection of the tumor cells from their own ROS signaling was annulled so that based on the cell-owned extracellular superoxide anion production the NO/peroxynitrite signal path and the HOCl path (with MKN-45 cells) or in case of the SHEP cells only the NO/peroxynitrite path could start when the cells were incubated at 37° C. The analysis of the signal paths was carried out by the application of inhibitors of the NADPH oxidase (AEBSF), the HOCl scavenger taurine, the peroxynitrite scavenger FeTPPS and the singlet oxygen scavenger histidine. In some experiments for comparison instead of the single domain VHH fragments either recombinant Fab fragments or monoclonal antibodies were applied. This is indicated in the respective illustrations.
Double preparations were examined at the times shown in the text by means of phase contrast reverse microscopy for the percentage of apoptotic cells. Here, the classical apoptosis criteria described and documented in Heinzelmann and Bauer 2010 such as condensation of the nucleus, fragmentation of the nucleus, and membrane blebbing were used. Per single preparation at least 250 randomly selected cells were examined for the presence of apoptosis features.
10 000 cells of the human neuroblastoma line SHEP per 100 μl medium were mixed with the given concentrations of the catalase-neutralizing single domain VHH fragment aCATcb0972, the SOD-neutralizing single domain VHH fragment aSOD0989, the SOD-binding but not neutralizing single domain VHH fragment aSODcb991 and the hybrid molecule aCATaSOD and incubated for 5 hours at 37° C., 5% CO2, before percentages of apoptotic cells were determined.
10 000 cells of the human neuroblastoma line SHEP per 100 μl medium were mixed with the given concentrations of the SOD-neutralizing single domain VHH fragment aSOD0989. Parallel preparations received 20 μM or 100 μM of the NO donor sodium nitroprusside or were incubated without a further additive. After 5 hours at 37° C., 5% CO2 the percentages of apoptotic cells were determined.

human SOD1 [2] = target: T1, human SOD1 (Homo sapiens, UniProt P00441); experiment: ELISA selection of clones binding to human SOD1
T1 sequence (P00441 2-154 limits assumed): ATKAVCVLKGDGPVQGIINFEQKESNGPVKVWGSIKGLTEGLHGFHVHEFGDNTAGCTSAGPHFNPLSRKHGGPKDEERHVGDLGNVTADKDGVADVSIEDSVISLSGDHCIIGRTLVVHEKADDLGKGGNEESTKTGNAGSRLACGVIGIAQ
Text: The preparation was by immunizing alpacas with human SOD1 (SOD1=Cu/ZnSOD [EC 1.15.1.1] purified from human erythrocytes, obtained from Sigma (Schnelldorf), catalogue number S 9636) under supervision of a veterinary, obtaining RNA from the B cells of the animals, reverse transcription, cloning in E. coli and isolation via the phage display technology. […] In a second run, by employing the cell culture system described by Heinzelmann and Bauer (Multiple protective functions of catalase against intercellular apoptosis-inducing ROS signaling of human tumor cells, Biol. Chem. 391, 675-693, 2010) it was checked which of the single domain VHH fragments binding to SOD actually results in an inhibition of SOD, what is expressed in the tumor system used as ROS-dependent apoptosis induction in the cells, since by the inhibition of SOD the concentration of free superoxide anions dramatically increases due to the absence of the enzymatic dismutation and results in a parallel indirect inhibition of catalase. In the following, this is expressed as ROS-dependent apoptosis induction. In a further control trial the specific inhibition of SOD by recombinant single domain VHH fragments was verified by the fact that the increasing effect of these fragments on apoptosis induction by exogenously added HOCl was examined, as described in Bauer 2013 (HOCl-dependent singlet oxygen and hydroxyl radical generation modulate and induce apoptosis of malignant cells. Anticancer Res 33: 3589-3602, 2013).

human SOD1 [3] = target: T1, human SOD1; experiment: Check for inhibition (neutralization) of SOD, ROS-dependent apoptosis induction and HOCl control trial; format: cell-based; parameters: endogenous in cells; host or cells: MKN-45 human gastric carcinoma cells
Text: Thus, the inhibition of the SOD mediated by single domain VHH or Fab fragments (comparison) can be determined by the fact that the apoptosis induction of tumor cells by exogenously added HOCl is employed as the test system. HOCl in a concentration depending manner induces apoptosis that is based on the interaction between HOCl and superoxide anions that results in the formation of aggressive hydroxyl radicals (Bauer G. HOCl-dependent singlet oxygen and hydroxyl radical generation modulate and induce apoptosis of malignant cells. Anticancer Res 33: 3589-3602, 2013). […] That is, the neutralizing effect of single domain VHH or Fab fragments can be determined by checking whether the inhibition of the apoptosis is abolished again by the single domain VHH or Fab fragments to be tested. The quantitative employment of said test system requires linking several simple steps the skilled person is familiar with. In the first step the concentration of commercially available HOCl (or sodium hypochlorite that sufficiently forms HOCl in medium) is determined that generates a significant quantifiable apoptosis signal within a reasonable trial time (1-2 hours). […] As soon as the first two steps have been satisfactorily performed there can take place the actual test of the inhibiting effect of the single domain VHH or Fab fragments. For that, selected concentrations of the fragments to be tested are pre-incubated for 20 minutes with the optimal concentration of SOD determined in advance in step #2. Subsequently, said mixture is added to the test cells. Thereafter, HOCl is added and the apoptosis induction is determined. […]
The preparation was by immunizing alpacas with human SOD1 (SOD1=Cu/ZnSOD [EC 1.15.1.1] purified from human erythrocytes, obtained from Sigma (Schnelldorf), catalogue number S 9636) under supervision of a veterinary, obtaining RNA from the B cells of the animals, reverse transcription, cloning in E. coli and isolation via the phage display technology. […] In the following, this is expressed as ROS-dependent apoptosis induction. […]

[4] = test system: MKN-45 gastric carcinoma cells; experiment: Standard preparation for autocrine ROS-controlled apoptosis induction in tumor cells (percentage of apoptotic cells); format: cell-based, human
Procedure: as §1
Double preparations were examined at the times shown in the text by means of phase contrast reverse microscopy for the percentage of apoptotic cells. Here, the classical apoptosis criteria described and documented in Heinzelmann and Bauer 2010 such as condensation of the nucleus, fragmentation of the nucleus, and membrane blebbing were used. Per single preparation at least 250 randomly selected cells were examined for the presence of apoptosis features. […]

[5] = test system: human colon carcinoma xenotransplant; experiment: Growth of human colon carcinoma xenotransplant on immunocompromised mice; format: in vivo
Procedure: The experiments carried out in FIGS. 28A and 28B and FIG. 29 were carried out by a commercial certified supplier (Oncotest GmbH, Freiburg). Here, xenotransplants of a human colon carcinoma were implanted in suitable mice. After the tumors had grown on and a certain minimum size had been achieved, the therapeutic test was started. aSODcb0989 in the indicated doses (mg/kg body weight) or buffer were intravenously applied twice a week. Also, the tumor sizes were measured twice a week by means of a caliber.

Row | Molecule | concentration required for apoptosis-inducing effect relative to the neutralizing single domain VHH fragment ([1]; 5 hours) | apoptosis induction in SHEP cells ([1]; 5 hours at 37° C., 5% CO2) | binding to human SOD1 (human SOD1 [2]) | neutralization (inhibition) of human SOD1 (human SOD1 [3]) | apoptosis induction in the presence of peroxynitrite scavenger FeTPPS ([4]; 25 μM FeTPPS) | apoptosis induction in the presence of HOCl scavenger taurine ([4]; 50 mM taurine) | apoptosis induction in combination with 0.005 pg/ml of the complementary single domain VHH fragment ([4]; 3.5 hours, FIG. 18) | optimum conc. ([4]; Table 1, concentration necessary for optimum apoptosis induction, taken from FIGS. 13A, 13B, 15A, 15B, 20) [pg/mL] | optimum conc. ([4]; Table 2, FIG. 20 experiment, 3.5 hours) [pg/mL] | ROS signaling path induced ([4]; inhibitor analysis) | tumor growth versus control group ([5]; 0.03 mg/kg intravenously twice a week) | tumor growth versus control group ([5]; 0.3 mg/kg intravenously twice a week) | tumor growth versus control group ([5]; 0.9 mg/kg intravenously twice a week)
1 | aSODcb0991: single domain VHH fragment binding to human SOD1, but not neutralizing; SEQ ID NO: 16 (protein, SOD binding) VHH: MAQVQLVESGGGIVQPGGSLRLSCVASESISDIDAMYWHRQAPGKRRELVAGITNDGTEYFADSVKGRFAISRDNTKSSLYLQMNSLKLEDTAMYYCATLPNPPPGYWGQGTQVTVSSKKKHHHHHH | 10^6 fold | at high concentrations also achieves an apoptosis-inducing effect; also recorded: weak but significant apoptosis induction | bind to human SOD1 | do not neutralize it |  |  |  |  |  |  |  |  | 
2 | aSODcb0989: single domain VHH fragment that binds to and neutralizes human SOD1; SEQ ID NO: 15 (protein, SOD binding) VHH: MAQVQLVESGGGLVQSGGSLTLSCTASGFTISNYPMTWVRQAPGKGLEWVSRINSGGDRTLYADSVKGRFTVSRDNARNTMYLQMNNLKPEDTGLYFCADSGAGWRYWGQGTQVTVSSKKKHHHHHH |  |  | binds to | neutralizes human SOD1 | complete inhibition by means of FeTPPS | disappearance of an inhibition by taurine | noteworthy synergistic effect | 1.2 | 0.35 | exclusively via the NO/peroxynitrite path | there does not result a recognizable difference to the controls | very clearly differs from the control group | in some animals the growth inhibition is enhanced, whereas in other animals there is caused the contrary
